Substitutions are numbered along the chain they refer to.

One data set addresses T1, C12-279 D352R (synthetic construct, D352R).
T1 chain: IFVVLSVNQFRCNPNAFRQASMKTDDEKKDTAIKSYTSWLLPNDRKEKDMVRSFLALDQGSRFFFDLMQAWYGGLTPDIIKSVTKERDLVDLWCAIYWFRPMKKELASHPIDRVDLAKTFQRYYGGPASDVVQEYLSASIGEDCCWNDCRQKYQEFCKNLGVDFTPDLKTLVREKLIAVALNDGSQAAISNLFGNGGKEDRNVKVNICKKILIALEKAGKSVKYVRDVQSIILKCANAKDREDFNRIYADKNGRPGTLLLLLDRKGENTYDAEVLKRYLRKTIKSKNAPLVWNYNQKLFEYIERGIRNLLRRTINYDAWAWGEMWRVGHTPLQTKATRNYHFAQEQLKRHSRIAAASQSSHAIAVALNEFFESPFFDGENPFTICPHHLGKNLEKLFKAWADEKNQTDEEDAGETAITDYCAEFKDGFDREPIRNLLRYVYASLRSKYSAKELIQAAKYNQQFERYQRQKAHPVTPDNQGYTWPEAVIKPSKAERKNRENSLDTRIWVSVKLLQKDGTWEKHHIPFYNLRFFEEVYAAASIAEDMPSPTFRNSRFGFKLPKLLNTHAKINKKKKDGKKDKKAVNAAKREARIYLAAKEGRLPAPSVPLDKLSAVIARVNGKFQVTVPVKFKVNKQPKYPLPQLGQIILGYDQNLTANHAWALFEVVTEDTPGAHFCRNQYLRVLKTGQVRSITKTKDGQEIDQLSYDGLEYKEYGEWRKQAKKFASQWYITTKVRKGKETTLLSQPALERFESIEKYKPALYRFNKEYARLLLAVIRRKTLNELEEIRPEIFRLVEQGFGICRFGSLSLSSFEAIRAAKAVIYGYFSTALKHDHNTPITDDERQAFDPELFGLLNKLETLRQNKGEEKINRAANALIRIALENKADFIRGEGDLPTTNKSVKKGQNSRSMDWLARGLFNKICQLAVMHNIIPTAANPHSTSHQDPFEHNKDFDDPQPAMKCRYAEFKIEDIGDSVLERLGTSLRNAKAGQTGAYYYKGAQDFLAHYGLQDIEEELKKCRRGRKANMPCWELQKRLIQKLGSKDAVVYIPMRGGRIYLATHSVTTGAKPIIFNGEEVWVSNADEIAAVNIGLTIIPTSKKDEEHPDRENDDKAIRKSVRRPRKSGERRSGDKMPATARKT
The data set can be described thus: cell_activity; PAM TTG; +/-0.22. The procedure:
(§1) Transfection: transfection was performed 12-14 h after plating. 1.5 μL PEI (Yeasen Biotechnology, 40815ES03, Polyethylenimine Linear (PEI) MW25000) and 500 ng mutation clone plasmid were added to 100 μL Opti-MEM per well of the 24-well plate, mixed, and added to the NAAN cell line for cell transfection after placing at room temperature for 20 min. After overnight transfection, a fresh culture medium was replaced, and the culture was continued for 72 h, followed by flow cytometry. Editing efficiencies of different mutant clones were characterized by the proportion of GFP-positive cells.
(§2) Editing efficiency of some selected mutants was tested in Reporter3 cell line using the same manner as described for the NAAN reporter system, except that the cell line was changed from NAAN cell line to Reporter3 cell line.

The target in the next data set is T2, C12-279 L260R (synthetic construct, L260R).
T2 chain: T1 chain with L260R, R352D
The data set can be described thus: cell_activity; PAM TTG; +/-0.14. The procedure: as §1, §2

B1: C12-279 Reporter3 sgRNA ; Reporter3 target (ssRNA ; dsDNA)
RNA: GUAAUGCGUCUCCCAUUGACGCCUCACCUCGCGACGCAAUGAUG
DNA 1: CTCACCTCGCGACGCAATGATG
DNA 2: CATCATTGCGTCGCGAGGTGAG
For B1, the values for the binding signal with C12-279 D352R and with C12-279 L260R were 1.18 fold of C12-279 and 0.66 fold of C12-279, respectively.
